In article PMC11707139:

Target: piggyBat transposase (Myotis lucifugus)
Assay: AUC; sedimentation velocity, ~3.1 µM purified pBat without DNA, 500 mM NaCl, 25 mM Tris-HCl pH 7.4, 0.5 mM TCEP, 50,000 rpm, 20 °C, c(s) analysis

piggyBat transposase (enzyme)
stoichiometry N: 2
